The source of these data is the nanobody polyreactivity screen of Harvey et al. (2022).

This data set in a line: yeast display, Sf9 membrane polyspecificity reagent, FACS + sequencing; frameworks hold sequencing errors. Put shortly: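 A synthetic nanobody library was expressed on Saccharomyces cerevisiae BJ5465 by galactose induction for 36–48 hours. The library was stained for 1 hour at 4 °C with 10% biotinylated, detergent-solubilized Sf9 membrane reagent and enriched with streptavidin microbeads before FACS. Low and high (top ~1%) gates were set on anti-HA fluorescence for expression and streptavidin fluorescence for reagent binding, and each polyreactivity label reflects the gate of origin.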
Consider “QVQLVESGGGLVQAGVSLRLSCSASGRTFSGYAMGWYRQAPGKERELVAAISGGTSTNYADSVKGRFTISRDNAKNSVYLPMNSLKPEDTAVYYCNTDVPDPYWAYWTGGYDYWGQGTHVTVSS”, for which the “polyreactivity (PSR sort gate)” value is “low polyreactivity”. With “QVQLVESGGGLVQAGVSLSLSCAGSGFIFFQYPMGWYRDAPGKDRELVAAISGSGVTTYYADSVKGRFTISRDYAKKTVYLQMNSLKPEDTAVYYCAALHYRIRRTGMDYWGQGTQVTVSS” the entry was “low polyreactivity”; with “QVQLVESGGGLVQALGSLRLSCAASGTTFNSNVMGWYRPAPGKERELVAGNNTTYYADSVKGRFTISRDNAKNTVYLQMNSLKPEDTAVYYCNGSEDAPAIEYLAPDGHDGYWGQGTQVTVSS”, “low polyreactivity”; with “QVQLVESGGGLVQARGSLRLSCAASALTFRIYDMGWYRQAPGKERELVAAITRGGSTYADSVKGRFTISRDNAKNTVYLQMNSLKPEDTAVYYCAARVRSTSQVSASPVWYYYWGQGTQVTVSS”, “high polyreactivity”.

“QVQLVESGGGLVQARGSLRLSCAASGFILTYYAMGRYRQAPGKEMELVATISSGGGSTYYADSVKGRFTISRDNAKNTVYLQMNSLKPEDTAVYFCAASRRMTGIRYINRYEYWGQGTQVTVSS”: the “polyreactivity (PSR sort gate)” value is “high polyreactivity”. With “QVQLVESGGGLVQARGSLRLSCAASGFTFDFYAMGWYRQAPGKERELVAAISKNDGTTYYADSVKGRFTISRDNAKNTVYLQMNSLKREDTAVYYCAAESGYPDYTYVSSGDYWGQGTQVTVSS” the entry was “low polyreactivity”; with “QVQLVESGGGLVQARGSLRLSCAASGIIFGYNAKGWYRQAPGKERELVAVITWNGGSTYYADSVKGCFTISRDNAKNTVYLQMNSLKPEDTAVYYCNAGDDYAYGVELSYDYWGQGTQVTVSS”, “low polyreactivity”; with “QVQLVESGGGLVQARGSLRLSCAASGRIFSPYAMGWNRQAPWKERELVASITSGGTTNYADSVKGRFTISRDNAKNTVYLQMNSLKTEDTAVYYCATTYSYDDKFTSTLVDPDYGYWGQGTQVTVSS”, “low polyreactivity”. With “QVQLVESGGGLVQARGSLRLSCAASGRILWDYAMGWYRQAPGKEREWLAAIDWSAGSTYYADSVKGRFTISRDNAKNTVYLQMKSLKPEDTAVYYCNARSRVGNSGADYDYWGQGTQVTVSS” the entry was “low polyreactivity”; with “QVQLVESGGGLVQARGSLRLSCAASGRTFGLYAMGWYIQAPGKEWELVAAITSGGSTYYADSVKGRFTISRDNAKYTVYLQMNSLTPEDTAVYFCDAEHDYLAQFEYDYWGPGTQVTVSS”, “low polyreactivity”; with “QVQLVESGGGLVQARGSLRLSCAASGRTFTSYAMGWYRQAPGKERELVAAISKRGGNTYYADSVKGRFTISRDNAKNTVYLQMNSLKPEDTAVYYCAARTWAGRWYGLDYWGQGTQVTVSS”, “high polyreactivity”. Regarding “QVQLVESGGGLVQARGSLRLSCAASGRTSPYYAMGWYRQAPGKEREWVAAISDGGSTNYADSVKGRFTISRDNAKNTVYLQMNSLKPEDTAVYYCAAYWHCFGWLRGGYWGQGTQVTVSS”, the “polyreactivity (PSR sort gate)” value is recorded as “high polyreactivity”.

For “QVQLVESGGGLVQARGSLRLSCAASGSIFHHYAMGWYRQAPGKDTELVAAISKSGGSTYYADSVKGRFTISRDNAKNTVYLQMNSLKPEDTAVYYCNAEVFWWDLWYDYWGQGTKVTVSS”, the “polyreactivity (PSR sort gate)” value is given as “high polyreactivity”. With “QVQLVESGGGLVQARGSLRLSCAASGSIFPGYAMRWYREAPGKARELVAAISTSGGSTYADSVTGRFTISRDNAKNTGYLQMNSLKPEDTAVYYCAATYTYTSPVYYSLDGPWPYDYWGQGSQVTVSS” the entry was “low polyreactivity”; with “QVQLVESGGGLVQARGSLRLSCAASGSIFPNYAMGWYRQAPGKERELVAAISSSGGRTYYADSVKGRFTSSRDNAKNTVYLQMNRLKPEDTAVYYCAVRGYWGEGTQVTVSS”, “low polyreactivity”.

Consider “QVQLVESGGGLVQARGSLRLSCAASGSIFYRNAMGWYRQAPGKETELVARIDRGGITHYADSVKGRFTISRDNAMNTVYLQMNSLKPEDTAVYYCAARKGYWYPTGHGARRYDYWGQGTQVTVSS”, for which the “polyreactivity (PSR sort gate)” value is reported as “high polyreactivity”. In the case of “QVQLVESGGGLVQARGSLRLSCAASGSTFDLYAMGWYRQAPGKEREFVAAISSSGGTTYNADSVKGRFTSSRDNAKKTVYLQRKSLKPEDTAVYYCAAVRYYESRGGYDYWGQGTQVTVSS”, the “polyreactivity (PSR sort gate)” value is on record as “low polyreactivity”. As for “QVQLVESGGGLVQARGSLRLSCAASGSTFVTYAMGWYRQAPGKERELVAAITWSGGGTYYADSVKGRFTISRDNAKNTVYLQMNSLKPEDTAVYYCNRPAAVGDEDYWGQGTQVTVSS”, the “polyreactivity (PSR sort gate)” value is recorded as “low polyreactivity”. With “QVQLVESGGGLVQARGSLRLSCAPSGFIFDVYAMGWYRQAPGKERELVAAISSSGGRTYYADSVKGRFTISRDNAKNTVYLQMNSLKPEDTAVYYCAAKTDSRTKVYTADYWGQGTQVTVSS” the entry was “high polyreactivity”.

For “QVQLVESGGGLVQARGSLRLSCASSGRIFWRYAMRWYSQSPGKERELVAAISRSGGRTYYADSVKGRFTISRDNAKNTVYLQMISLKPEDTAVYYCAAKTGGQPGDYWGQGTQVTVSS”, the “polyreactivity (PSR sort gate)” value was “high polyreactivity”. In the case of “QVQLVESGGGLVQARGSLRLSCSSSGSIFASYAMGWYRRAPGKERELVAAISRRAVLTYYADSVKGSFTISRDNAKNTVYLQMNSLKPEDTAVYYCNARGYSGYQRYGYNYWGQGTQVTVSS”, the “polyreactivity (PSR sort gate)” value is “high polyreactivity”. With “QVQLVESGGGLVQARGSRRLTCAASGRTFSYYAMGWYLHEPGKERELVAAITSSGGRTTYADSVKGRFTISRDNAKNTVYLQMNSLKPEDTAVYYCNVVRWTLKYGYWGQGTQVTVSS” the entry was “high polyreactivity”; with “QVQLVESGGGLVQARRSLRLSCAASGSTFVQYAMGWDRQAPGNERELVASISYSTGSSTYYADSVKGRFTISRDNAKTTVYLQMNSLKPEDTAFYECAAGIPKGGWSRPRYYYWGQGTQVTVSS”, “high polyreactivity”.

For “QVQLVESGGGLVQASGSLRLSCAASVRIFFVNAMGWYRQEHGKERELVAAIPSSGGSTYYADSVKGRFTISRDNAKNTVYLQMNSLKPEDTAVYYCNARSWYPYDYWGQGTQVTVSS”, the “polyreactivity (PSR sort gate)” value is “low polyreactivity”. With “QVQLVESGGGLVQAVGSIRLSCAASGSIFRKYSIRWNRQAPGKDRELVAAISWSGGGTYYADSVKGRFTISRDNAKNTVYLQMNSLKPEDTAVYYCAADPYWDSKGVYWGQGTQVTVSS” the entry was “low polyreactivity”. With “QVQLVESGGGLVQAVGSLRLICDASGSTFYKYSMGWYRQAPGKERELVAAITTSGTGTYYADSVKGRFTISRDNAKNTVYLEMNSLKPEDTGVYYCNARIVYRVGVSRMYYWGQGTQVTVSS” the entry was “high polyreactivity”; with “QVQLVESGGGLVQAVGSLRLSCAASGFTFERNAMGWYRQAPGKARELVATINGSSDSTYYADSVKGRFTISRDKAKNTVYLQMNSLKPEDTAVYYCNADSITEGNSRYSHFDYWGQGTQVTVSS”, “low polyreactivity”; with “QVQLVESGGGLVQAVGSLRLSCAASGFTFGEYDMGSYRHAPGKERELVAAIDSGGSTYYADSVKRRFTISRDNAKNTVYLQMNSLKPEDTALYYCNADSTYDYYELDYDHWGQGTQVTVSS”, “low polyreactivity”. The same measure for “QVQLVESGGGLVQAVGSLRLSCAASGFTFTNYAMGWSRQAPVKEREFVAAISGTGGSTYYADSVKGRFTISRDNAYNTEYLQMNSLKPEDTAVYYCARRRTYPPGRYYYLGQGTQVTVSS”: “high polyreactivity”.

On to “QVQLVESGGGLVQAVGSLRLSCAASGIIFRNYAMGWYRQAPGKEREWVAAISRSGGSTYYADSVKGRFTISRDNAKNTCYLQMNSLKPEDTAVYYCNAAYWAYNGFSYLMDYWGQGTQVTVSS”, for which the “polyreactivity (PSR sort gate)” value is given as “low polyreactivity”. With “QVQLVESGGGLVQAVGSLRLSCAASGRIFRHNAMGWYRQAPGKEWELVAAISGGGTTYYADSVKGRFTISRDNAKNTVYLQMNSLKPEDTAVYYCAARRRGSVGVGYAYAYYYWGQGTQVTVSS” the entry was “high polyreactivity”; with “QVQLVESGGGLVQAVGSLRLSCAASGRILYWYAMGWYRQAPGKERELVAAINHGDTSTYYADSVKGRFTISRDNAKNTVYLQMNSLIPEDTAVYYCNVRSYVYSRWYQSTWGYYYWGQGTQVTVSS”, “high polyreactivity”.

Turning to “QVQLVESGGGLVQAVGSLRLSCAASGRTFGTYAMGWYRQAPGKERELVAAISSGGSTYADSVKGRFTISRDNAKNTVYLQMNSLKPEDTAVYYCNNVRRKQSVLTFDYWGQGTQVTVSS”, the “polyreactivity (PSR sort gate)” value is listed as “high polyreactivity”. Consider “QVQLVESGGGLVQAVGSLRLSCAASGSIFRKYVMGWYRQAPGKERELVAVISSGTGTYYADSVKGRFTISRDNAKNSVYLQMNSLKPEDTAVYYCAAKYFGKWYKYYYWGQGTQVTVSS”, for which the “polyreactivity (PSR sort gate)” value is “high polyreactivity”.

Turning to “QVQLVESGGGLVQAVGSLRLSCAASGSTFDIYAMGWYRQAPGKERELVAAITSGGSTYADSVKGRFTISRDNAKNTVYLQMNSLKPEDTAVYYCNADRWFGNYLHLSFLNDYWGQGNQVTVSS”, the “polyreactivity (PSR sort gate)” value is “low polyreactivity”. As for “QVQLVESGGGLVQAVGSLRLSCAASGSTFRGYTMGWYRQEPGKERELVSAINWSGGDTYYADSVKGRFTISRDNAKNTVYLQMNSLKPEDTAVYYCNTRHTYPQSFILRRDYWGQGTQVTVSS”, the “polyreactivity (PSR sort gate)” value is given as “low polyreactivity”. The same measure for “QVQLVESGGGLVQAVGSLRLSFAASGFTFWYYPMGWYRQAPGKERELLAAITSSGGSTYYADSEKGRFTISRDYAKITVYLQMNSLKPEDTAVYYCAAGAPYRYYYCGQGTQVTVSS”: “high polyreactivity”. In the case of “QVQLVESGGGLVQAVGSLSLSCAASGLTLGSYAKGAYRQAPGKERELVAAISRRSGRTYYADSVKGLFTISRDNAKNTVYLQINSLKPEDTAGFYCNRGYTAQVYTEFDYWGQGTQVTVSS”, the “polyreactivity (PSR sort gate)” value is “low polyreactivity”. Consider “QVQLVESGGGLVQEGGSLRISCAASGRIFYYYVMGGYRQAPGKERELVAGITSRGRTYYADSVKGRFTISRDNAKNTVYLQMNSLKPEVTAVYDCNKVGATWRQWFGYWGQGTQVTVSS”, for which the “polyreactivity (PSR sort gate)” value was “high polyreactivity”. With “QVQLVESGGGLVQEGGSLRLICAASGSILGSNAMGWYRQAPGKEREFVAAITWTGGSTYYADSVKGRFTISRDNAKNTVYLQMNSLKREDTAVYYCAKDVKYVKMDYWGQGTQVTVSS” the entry was “low polyreactivity”.
